Experiments:
[1] = molecular target: HLA-G on cells (K562-HLA-G and HLA-G expressing tumor cells) (human); assay: cell-based or functional assay
[2] = molecular target: T1, MHGW8 (B2m-3(G4S)-HLA-G1-G4S-Avi) (human, biotinylated (Avi tag) in the blocking assay); assay: SPR, mAb captured by goat anti-human Fc, MHGW8 flowed
T1 construct: Single chain β2m-HLA-G1; also called soluble HLA-G1 extracellular domain; recombinant biotinylated HLA-G1

Binder	Cytotoxicity, EC50 (T cell-mediated, NCI-H2009-b2m target cells, 72 hr) [1] [nM]	also measured
HC3B235 (bispecific antibody, human IgG1, kappa, L234A L235A) scFv: QTVVTQEPSLTVSPGGTVTLTCRSSTGAVTTSNYANWVQQKPGQAPRGLIGGTNKRAPGTPARFSGSLLGGKAALTLSGVQPEDEAEYYCALWYSNLWVFGGGTKLTVLGGSEGKSSGSGSESKSTGGSEVQLVESGGGLVQPGGSLRLSCAASGFTFNTYAMNWVRQAPGKGLEWVARIRSKYNNYATYYAASVKGRFTISRDDSKNSLYLQMNSLKTEDTAVYYCVRHGNFGNSYVSWFAYWGQGTLVTVSSEPKSSDKTHTCPPCPAPEAAGGPSVFLFPPKPKDTLMISRTPEVTCVVVSVSHEDPEVKFNWYVDGVEVHNAKTKPREEQYNSTYRVVSVLTVLHQDWLNGKEYKCKVSNKALPAPIEKTISKAKGQPREPQVYVYPPSREEMTKNQVSLTCLVKGFYPSDIAVEWESNGQPENNYKTTPPVLDSDGSFALVSKLTVDKSRWQQGNVFSCSVMHEALHNHYTQKSLSLSPG heavy: QVQLQQSGPGLVKPSQTLSLTCAISGDSVSSNRAAWNWIRQSPSRGLEWLGRTYYRSKWYNDYAVSVKSRITINPDTSKNQISLQLNSVTPEDTAVYYCARVRPGIPFDYWGQGTPVTVSSASTKGPSVFPLAPSSKSTSGGTAALGCLVKDYFPEPVTVSWNSGALTSGVHTFPAVLQSSGLYSLSSVVTVPSSSLGTQTYICNVNHKPSNTKVDKKVEPKSCDKTHTCPPCPAPEAAGGPSVFLFPPKPKDTLMISRTPEVTCVVVSVSHEDPEVKFNWYVDGVEVHNAKTKPREEQYNSTYRVVSVLTVLHQDWLNGKEYKCKVSNKALPAPIEKTISKAKGQPREPQVYVLPPSREEMTKNQVSLLCLVKGFYPSDIAVEWESNGQPENNYLTWPPVLDSDGSFFLYSKLTVDKSRWQQGNVFSCSVMHEALHNHYTQKSLSLSPG light: not shown	0.0837	–
HC3B230 (bispecific antibody, human IgG1, kappa, L234A L235A) scFv: QTVVTQEPSLTVSPGGTVTLTCRSSTGAVTTSNYANWVQQKPGQAPRGLIGGTNKRAPGTPARFSGSLLGGKAALTLSGVQPEDEAEYYCALWYSNLWVFGGGTKLTVLGGSEGKSSGSGSESKSTGGSEVQLVESGGGLVQPGGSLRLSCAASGFTFNTYAMNWVRQAPGKGLEWVARIRSKYNNYATYYAASVKGRFTISRDDSKNSLYLQMNSLKTEDTAVYYCVRHGNFGNSYVSWFAYWGQGTLVTVSSEPKSSDKTHTCPPCPAPEAAGGPSVFLFPPKPKDTLMISRTPEVTCVVVSVSHEDPEVKFNWYVDGVEVHNAKTKPREEQYNSTYRVVSVLTVLHQDWLNGKEYKCKVSNKALPAPIEKTISKAKGQPREPQVYVYPPSREEMTKNQVSLTCLVKGFYPSDIAVEWESNGQPENNYKTTPPVLDSDGSFALVSKLTVDKSRWQQGNVFSCSVMHEALHNHYTQKSLSLSPG heavy: QVQLQQSGPGLVKPSQTLSLTCAISGDSVSSNSAAWNWIRQSPSRGLEWLGRTYYRSKWYNDYAVSVKSRITINPDTSKNQISLQLNSVTPEDTAVYYCAGDRRYGIVGLPFAYWGQGTLVTVSSASTKGPSVFPLAPSSKSTSGGTAALGCLVKDYFPEPVTVSWNSGALTSGVHTFPAVLQSSGLYSLSSVVTVPSSSLGTQTYICNVNHKPSNTKVDKKVEPKSCDKTHTCPPCPAPEAAGGPSVFLFPPKPKDTLMISRTPEVTCVVVSVSHEDPEVKFNWYVDGVEVHNAKTKPREEQYNSTYRVVSVLTVLHQDWLNGKEYKCKVSNKALPAPIEKTISKAKGQPREPQVYVLPPSREEMTKNQVSLLCLVKGFYPSDIAVEWESNGQPENNYLTWPPVLDSDGSFFLYSKLTVDKSRWQQGNVFSCSVMHEALHNHYTQKSLSLSPG light: not shown	0.00992	–
MHGB737 (antibody, human IgG1, kappa, V domains shown, IgG1; also called GL-optimized B694) VH: EVQLLESGGGLVQPGGSLRLSCAASGFTFSSYAMHWVRQAPGKGLEWVSGISGSGFSTYYVDSVKGRFTISRDNSKNTLYLQMNSLRAEDTAVYYCAKDNLVAGTVFDYWGQGTLVTVSS VL: not shown	–	Kd [2]: 2.56 nM; koff [2]: 0.00031 s⁻¹; kon [2]: 200000 M⁻¹ s⁻¹
HC3B124 (bispecific antibody, human IgG1, lambda, L234A L235A) heavy: EVQLVESGGGLVQPGGSLRLSCAASGFTFNTYAMNWVRQAPGKGLEWVARIRSKYNNYATYYAASVKGRFTISRDDSKNSLYLQMNSLKTEDTAVYYCVRHGNFGNSYVSWFAYWGQGTLVTVSSASTKGPSVFPLAPSSKSTSGGTAALGCLVKDYFPEPVTVSWNSGALTSGVHTFPAVLQSSGLYSLSSVVTVPSSSLGTQTYICNVNHKPSNTKVDKKVEPKSCDKTHTCPPCPAPEAAGGPSVFLFPPKPKDTLMISRTPEVTCVVVSVSHEDPEVKFNWYVDGVEVHNAKTKPREEQYNSTYRVVSVLTVLHQDWLNGKEYKCKVSNKALPAPIEKTISKAKGQPREPQVYVYPPSREEMTKNQVSLTCLVKGFYPSDIAVEWESNGQPENNYKTTPPVLDSDGSFALVSKLTVDKSRWQQGNVFSCSVMHEALHNHYTQKSLSLSPG light: QTVVTQEPSLTVSPGGTVTLTCRSSTGAVTTSNYANWVQQKPGQAPRGLIGGTNKRAPGTPARFSGSLLGGKAALTLSGVQPEDEAEYYCALWYSNLWVFGGGTKLTVLGQPKAAPSVTLFPPSSEELQANKATLVCLISDFYPGAVTVAWKADSSPVKAGVETTTPSKQSNNKYAASSYLSLTPEQWKSHRSYSCQVTHEGSTVEKTVAPTECS scFv: DIVMTQSPDSLAVSLGERATINCKSSQSVLHSSNNKNYLTWFQQKPGQPPKLLIYWASTRESGVPDRFSGSGSGTDFTLTISSLQAEDVAVYYCHQYYSTPPTFGQGTKVEIKGGSEGKSSGSGSESKSTGGSQVQLQQSGPGLVKPSQTLSLTCAISGDSVSSNSAAWNWIRQSPSRGLEWLGRTYYRSKWYNDYAVSVKSRITINPDTSKNQISLQLNSVTPEDTAVYYCAGDRRYGIVGLPFAYWGQGTLVTVSSEPKSSDKTHTCPPCPAPEAAGGPSVFLFPPKPKDTLMISRTPEVTCVVVSVSHEDPEVKFNWYVDGVEVHNAKTKPREEQYNSTYRVVSVLTVLHQDWLNGKEYKCKVSNKALPAPIEKTISKAKGQPREPQVYVLPPSREEMTKNQVSLLCLVKGFYPSDIAVEWESNGQPENNYLTWPPVLDSDGSFFLYSKLTVDKSRWQQGNVFSCSVMHEALHNHYTQKSLSLSPG	0.00385	–
HC3B232 (bispecific antibody, human IgG1, kappa, L234A L235A) scFv: DIQMTQSPSSLSASVGDRVTITCRARQSIGTAIHWYQQKPGKAPKLLIKYASESISGVPSRFSGSGSGTDFTLTISSVQPEDFATYYCQQSGSWPYTFGQGTKLEIKGGSEGKSSGSGSESKSTGGSEVQLVESGGGLVKPGGSLRLSCAASGFTFSRYNMNWVRQAPGKGLEWVSSISTSSNYIYYADSVKGRFTFSRDNAKNSLDLQMSGLRAEDTAIYYCTRGWGPFDYWGQGTLVTVSSEPKSSDKTHTCPPCPAPEAAGGPSVFLFPPKPKDTLMISRTPEVTCVVVSVSHEDPEVKFNWYVDGVEVHNAKTKPREEQYNSTYRVVSVLTVLHQDWLNGKEYKCKVSNKALPAPIEKTISKAKGQPREPQVYVYPPSREEMTKNQVSLTCLVKGFYPSDIAVEWESNGQPENNYKTTPPVLDSDGSFALVSKLTVDKSRWQQGNVFSCSVMHEALHNHYTQKSLSLSPGK heavy: QVQLQQSGPGLVKPSQTLSLTCAISGDSVSSNSAAWNWIRQSPSRGLEWLGRTYYRSKWYNDYAVSVKSRITINPDTSKNQISLQLNSVTPEDTAVYYCAGDRRYGIVGLPFAYWGQGTLVTVSSASTKGPSVFPLAPSSKSTSGGTAALGCLVKDYFPEPVTVSWNSGALTSGVHTFPAVLQSSGLYSLSSVVTVPSSSLGTQTYICNVNHKPSNTKVDKKVEPKSCDKTHTCPPCPAPEAAGGPSVFLFPPKPKDTLMISRTPEVTCVVVSVSHEDPEVKFNWYVDGVEVHNAKTKPREEQYNSTYRVVSVLTVLHQDWLNGKEYKCKVSNKALPAPIEKTISKAKGQPREPQVYVLPPSREEMTKNQVSLLCLVKGFYPSDIAVEWESNGQPENNYLTWPPVLDSDGSFFLYSKLTVDKSRWQQGNVFSCSVMHEALHNHYTQKSLSLSPG light: not shown	0.00677	–
HC3B231 (bispecific antibody, human IgG1, kappa, L234A L235A) scFv: QSALTQPASVSGSPGQSITISCTGTSSNIGTYKFVSWYQQHPGKAPKVMIYEVSKRPSGVSNRFSGSKSGNTASLTISGLQAEDEADYYCVSYAGSGTLLFGGGTKLTVLGGSEGKSSGSGSESKSTGGSQVQLQQSGPGLVKPSQTLSLTCAISGDSVFNNNAAWSWIRQSPSRGLEWLGRTYYRSKWLYDYAVSVKSRITINPDTSKNQFSLQLNSVTPEDTAVYYCARGYSSSFDYWGQGTLVTVSSEPKSSDKTHTCPPCPAPEAAGGPSVFLFPPKPKDTLMISRTPEVTCVVVSVSHEDPEVKFNWYVDGVEVHNAKTKPREEQYNSTYRVVSVLTVLHQDWLNGKEYKCKVSNKALPAPIEKTISKAKGQPREPQVYVYPPSREEMTKNQVSLTCLVKGFYPSDIAVEWESNGQPENNYKTTPPVLDSDGSFALVSKLTVDKSRWQQGNVFSCSVMHEALHNHYTQKSLSLSPG heavy: QVQLQQSGPGLVKPSQTLSLTCAISGDSVSSNSAAWNWIRQSPSRGLEWLGRTYYRSKWYNDYAVSVKSRITINPDTSKNQISLQLNSVTPEDTAVYYCAGDRRYGIVGLPFAYWGQGTLVTVSSASTKGPSVFPLAPSSKSTSGGTAALGCLVKDYFPEPVTVSWNSGALTSGVHTFPAVLQSSGLYSLSSVVTVPSSSLGTQTYICNVNHKPSNTKVDKKVEPKSCDKTHTCPPCPAPEAAGGPSVFLFPPKPKDTLMISRTPEVTCVVVSVSHEDPEVKFNWYVDGVEVHNAKTKPREEQYNSTYRVVSVLTVLHQDWLNGKEYKCKVSNKALPAPIEKTISKAKGQPREPQVYVLPPSREEMTKNQVSLLCLVKGFYPSDIAVEWESNGQPENNYLTWPPVLDSDGSFFLYSKLTVDKSRWQQGNVFSCSVMHEALHNHYTQKSLSLSPG light: not shown	0.126	–

Source: US20220411504A1 (Janssen / Centocor, published 2022)
